Test results from paper PMC7896311, “Structure of the SARS-CoV-2 RNA-dependent RNA polymerase in the presence of favipiravir-RTP”.

Target: nsp12 (RNA-dependent RNA polymerase);nsp7;nsp8 (SARS-CoV-2;SARS-CoV-2;SARS-CoV-2, UniProt P0DTD1;P0DTD1;P0DTD1 4393-5324;3860-3942;3943-4140, ||)
Assay: cryo-EM structure (2.5 A)
Settings: protein: recombinant;recombinant;recombinant; tags: C-terminal TEV site-double StrepII on the nsp5-nsp7-nsp8-nsp12 polyprotein;;; copies: 1;1;2

B1: primer:template RNA duplex (dsRNA)
RNA 1: CAGUGCUAUGUGAGAUUAAGUUAU
RNA 2: UUUUUCAUAACUUAAUCUCACAUAGCACUG
  binding result: binds
